In US8017576B2, “Methods and compositions to treat mucositis” (The University of Chicago, priority 2005, dated 2011):

B1: rhAMP-18: recombinant human AMP-18 prepared in E. coli; Antrum Mucosal Protein-18 (gastrokine-1) (protein, UniProt Q9NS71 21-185, looked up)
Gastrokine-1: NYNINVNDDNNNAGSGQQSVSVNNEHNVANVDNNNGWDSWNSIWDYGNGFAATRLFQKKTCIVHKMNKEVMPSIQSLDALVKEKKLQGKGPGGPPPKGLMYSVNPNKVDDLSKFGKNIANMCRGIPTYMAEEMQEASLFFYSGTCYTTSVLWIVDISFCGDTVEN
B2: KGF-1: keratinocyte growth factor, known epithelial cell mitogen (protein, UniProt P21781 32-194, looked up)
Fibroblast growth factor 7: CNDMTPEQMATNVNCSSPERHTRSYDYMEGGDIRVRRLFCRTQWYLRIDKRGKVKGTQEMKNNYNIMEIRTVAVGIVAIKGVESEFYLAMNKEGKLYAKKECNEDCNFKELILENHYNTYASAKWTHNGGEMFVALNQKGIPVRGKKTKKEQKTAHFLPMAIT

Experiments:
[1] = tested on: stomach and intestinal epithelial cells; experiment: Mitogenic and physiological effects on stomach and intestinal epithelial cells; format: cell-based
Text: The synthesis of AMP-18 is confined to lumenal mucosal lining epithelial cells of the gastric antrum of humans and other mammals. Inside cells the protein is co-localized with mucins in secretion granules, and appears to be secreted into the mucus overlying the apical plasma membrane. […] These include mitogenesis, restitution, maturation of barrier function, and cell protection after oxidant, non-steroidal anti-inflammatory (NSAID), and DSS-mediated injury. Certain of these physiological effects can occur at concentrations that are relatively low for rhAMP-18 (<50 μM) compared to the concentrations of other gastric peptide mediators such as trefoil peptides or the α-defensin, cryptdin 3 (>100 μM). […] AMP-18 likely plays a role in physiological and pathological processes such as wound healing in the gastric mucosal epithelium in vivo as may occur in gastritis secondary to NSAID drugs, other pharmaceutical agents and alcohol, ulcer disease, and the consequences of H. pylori infection and inflammation.

[2] = tested on: human colonic Caco2 (C2) cell monolayers; experiment: Tight junction recovery after low-calcium disruption, ZO-1 confocal microscopy; format: cell-based; conditions: low-calcium medium (3 μM) 1 hour, assessed 2 hours after addition; AMP peptide 8 μg/ml, KGF-1 100 ng/ml, EGF 100 ng/ml
Procedure: The AMP77-97 peptide prevented decreases in TJ proteins and epithelial integrity seen after treatment of human colonic Caco2 (C2) cell monolayers with the oxidant monochloramine, which disrupts intercellular junctions (FIG. 2; C,D). These cells were exposed to low-calcium medium (3 μM) for 1 hr to disrupt TJs, and then allowed to recover in medium containing AMP77-97 peptide, epidermal growth factor (EGF) or keratinocyte growth factor (KGF-1) which are known epithelial cell mitogens that might facilitate recovery of disrupted TJs. […] At the molecular level, AMP77-97 peptide facilitates the formation of TJs by enhancing translocation of several proteins (protein kinase C-zeta, Par6, Cdc42, ECT2 and Par3) from the cytosol into TJ domains.
Localization of the tight junction protein ZO-1 was monitored by indirect immunofluorescence laser scanning confocal microscopy in confluent monolayers of C2 cells. […] To disrupt tight junctions, cells were switched to low-calcium medium (3 μM) for 1 hour. Then a growth factor at a known mitogenic concentration was added to the medium, and 2 hours later its effect on tight junction formation was assessed by confocal microscopy. Vehicle, AMP peptide (8 μg/ml), KGF-1 (100 ng/ml), and EGF (100 ng/ml) were compared.

Molecule | concentration for mitogenic effect relative to growth-promoting synthetic peptides ([1]; recombinant protein prepared in E. coli) | concentrations at which physiological effects occur ([1]; rhAMP-18) [μM] | formation of new tight junctions / localization of ZO-1 [2]
B1 | an order of magnitude lower | < 50 | –
B2 | – | – | persistent separation of cells with TJ disruption and apparent loss of ZO-1
